One data set has as its system AncSZ. The experiment in a line: phosphorylation enrichment, bacterial display (enrichment ratio); higher = better substrate or ligand; peptides without Tyr show the background.
For a further data set, the target named is EPHB1 (UniProt P54762). The data set is described as above.
For another data set, the target named is EPHB2 (UniProt P29323). Described as above.
A further data set has as its target FGFR1 (UniProt P11362). The description is as above.
The target of a further data set is FGFR3 (UniProt P22607). Described as above.
The subject of the next data set is Fer (mouse). The data set is described as above.
The target in a further data set is Fes (UniProt P07332). The data set is described as above.
Fes, sequence (P07332 whole entry, looked up): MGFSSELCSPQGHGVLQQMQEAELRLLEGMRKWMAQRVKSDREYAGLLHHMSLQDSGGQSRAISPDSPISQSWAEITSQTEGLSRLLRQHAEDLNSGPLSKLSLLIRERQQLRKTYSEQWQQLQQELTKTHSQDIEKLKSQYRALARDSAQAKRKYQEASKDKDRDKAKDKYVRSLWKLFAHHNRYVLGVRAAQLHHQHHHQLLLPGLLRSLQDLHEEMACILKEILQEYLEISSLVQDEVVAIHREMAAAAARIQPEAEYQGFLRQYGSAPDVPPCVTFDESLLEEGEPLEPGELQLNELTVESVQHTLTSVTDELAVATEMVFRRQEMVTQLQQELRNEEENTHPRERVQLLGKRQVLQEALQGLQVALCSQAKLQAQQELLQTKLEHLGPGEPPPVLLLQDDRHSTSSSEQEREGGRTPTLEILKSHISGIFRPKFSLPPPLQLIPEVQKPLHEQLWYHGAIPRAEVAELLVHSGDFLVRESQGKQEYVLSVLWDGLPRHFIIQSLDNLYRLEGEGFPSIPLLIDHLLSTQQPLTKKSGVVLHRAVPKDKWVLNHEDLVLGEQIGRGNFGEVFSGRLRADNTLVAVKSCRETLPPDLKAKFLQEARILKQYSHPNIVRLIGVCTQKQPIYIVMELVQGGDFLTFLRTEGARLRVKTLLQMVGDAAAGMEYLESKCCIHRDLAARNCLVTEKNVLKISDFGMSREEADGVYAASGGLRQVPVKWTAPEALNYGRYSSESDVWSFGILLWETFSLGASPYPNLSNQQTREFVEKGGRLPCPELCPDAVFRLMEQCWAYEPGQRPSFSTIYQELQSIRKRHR
A further data set deals with Fyn (UniProt P06241). The description is as above.
Fyn, sequence (P06241 whole entry, looked up): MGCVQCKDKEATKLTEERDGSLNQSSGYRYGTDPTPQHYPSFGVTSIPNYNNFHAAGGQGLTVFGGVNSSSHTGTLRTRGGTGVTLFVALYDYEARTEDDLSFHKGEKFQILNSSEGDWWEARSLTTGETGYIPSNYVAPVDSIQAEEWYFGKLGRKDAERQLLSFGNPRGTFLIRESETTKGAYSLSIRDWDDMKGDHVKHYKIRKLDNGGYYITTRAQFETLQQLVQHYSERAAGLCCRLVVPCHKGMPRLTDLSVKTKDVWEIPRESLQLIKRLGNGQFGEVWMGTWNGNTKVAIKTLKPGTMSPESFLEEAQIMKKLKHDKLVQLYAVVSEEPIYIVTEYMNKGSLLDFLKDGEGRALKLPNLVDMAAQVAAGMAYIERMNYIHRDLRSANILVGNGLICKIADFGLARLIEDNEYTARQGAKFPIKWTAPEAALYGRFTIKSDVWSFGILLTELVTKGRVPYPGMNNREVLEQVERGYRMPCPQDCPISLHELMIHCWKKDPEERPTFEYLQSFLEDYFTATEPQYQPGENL
Another data set has as its target Hck (UniProt P08631). Described as above.
Another data set concerns the target Jak2 (UniProt O60674). The data set is described as above.
In a further data set the target is MERTK (UniProt Q12866). The description is as above.
For another data set, the system named is c-Abl (mouse). Described as above.
In the next data set the test system is c-Src. The description is as above.
In a further data set the target is Grb2 SH2 (UniProt P62993). The experiment in a line: SH2 binding enrichment of the phosphorylated peptide, bacterial display (enrichment ratio); higher = better substrate or ligand; peptides without Tyr show the background.
Grb2 SH2, sequence (P62993 whole entry, looked up): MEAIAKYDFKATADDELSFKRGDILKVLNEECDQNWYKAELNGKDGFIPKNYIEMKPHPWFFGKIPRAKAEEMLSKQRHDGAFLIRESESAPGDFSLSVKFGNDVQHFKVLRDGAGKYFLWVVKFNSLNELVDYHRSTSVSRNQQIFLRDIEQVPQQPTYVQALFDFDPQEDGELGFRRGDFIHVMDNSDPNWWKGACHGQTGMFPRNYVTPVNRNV
The target in the next data set is SHP2-C SH2. Described as above.
Another data set addresses c-Src SH2. The description is as above.
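Wherever SH2 binding enrichment of the phosphorylated peptide, bacterial display is given: peptide library displayed on the E. coli surface as eCPX fusions, selected cells deep-sequenced, score is each peptide's frequency after selection divided by its frequency in the input.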
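Wherever phosphorylation enrichment, bacterial display is given: 11-residue human phosphosite peptides and single-mutation variants displayed on the E. coli surface, counted by deep sequencing, each peptide's frequency after selection divided by its frequency in the unselected input library; frequency after pTyr selection over input frequency; kinase dosed for 20-30% of maximal phosphorylation in three min.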

FGFR1, sequence (P11362 whole entry, looked up): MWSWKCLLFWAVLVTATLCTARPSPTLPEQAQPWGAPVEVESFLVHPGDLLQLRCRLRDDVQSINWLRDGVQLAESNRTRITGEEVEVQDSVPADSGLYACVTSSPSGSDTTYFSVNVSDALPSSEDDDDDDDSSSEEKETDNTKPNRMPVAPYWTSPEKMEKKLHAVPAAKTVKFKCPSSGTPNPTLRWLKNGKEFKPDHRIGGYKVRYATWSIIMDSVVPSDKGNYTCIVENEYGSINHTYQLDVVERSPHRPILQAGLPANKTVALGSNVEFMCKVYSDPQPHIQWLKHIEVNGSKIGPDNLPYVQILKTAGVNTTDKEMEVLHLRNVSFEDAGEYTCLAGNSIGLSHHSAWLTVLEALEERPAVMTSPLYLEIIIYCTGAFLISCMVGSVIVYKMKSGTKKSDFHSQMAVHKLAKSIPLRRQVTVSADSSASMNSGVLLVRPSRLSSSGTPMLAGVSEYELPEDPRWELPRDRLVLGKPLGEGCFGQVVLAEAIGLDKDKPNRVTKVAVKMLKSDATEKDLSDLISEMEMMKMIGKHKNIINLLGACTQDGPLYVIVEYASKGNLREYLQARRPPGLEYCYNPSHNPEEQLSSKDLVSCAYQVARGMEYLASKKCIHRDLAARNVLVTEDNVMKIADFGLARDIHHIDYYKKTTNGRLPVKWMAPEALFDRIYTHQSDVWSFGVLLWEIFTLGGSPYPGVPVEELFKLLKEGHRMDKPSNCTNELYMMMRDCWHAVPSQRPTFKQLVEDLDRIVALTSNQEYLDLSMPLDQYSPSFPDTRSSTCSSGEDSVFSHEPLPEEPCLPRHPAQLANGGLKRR
EPHB1, sequence (P54762 whole entry, looked up): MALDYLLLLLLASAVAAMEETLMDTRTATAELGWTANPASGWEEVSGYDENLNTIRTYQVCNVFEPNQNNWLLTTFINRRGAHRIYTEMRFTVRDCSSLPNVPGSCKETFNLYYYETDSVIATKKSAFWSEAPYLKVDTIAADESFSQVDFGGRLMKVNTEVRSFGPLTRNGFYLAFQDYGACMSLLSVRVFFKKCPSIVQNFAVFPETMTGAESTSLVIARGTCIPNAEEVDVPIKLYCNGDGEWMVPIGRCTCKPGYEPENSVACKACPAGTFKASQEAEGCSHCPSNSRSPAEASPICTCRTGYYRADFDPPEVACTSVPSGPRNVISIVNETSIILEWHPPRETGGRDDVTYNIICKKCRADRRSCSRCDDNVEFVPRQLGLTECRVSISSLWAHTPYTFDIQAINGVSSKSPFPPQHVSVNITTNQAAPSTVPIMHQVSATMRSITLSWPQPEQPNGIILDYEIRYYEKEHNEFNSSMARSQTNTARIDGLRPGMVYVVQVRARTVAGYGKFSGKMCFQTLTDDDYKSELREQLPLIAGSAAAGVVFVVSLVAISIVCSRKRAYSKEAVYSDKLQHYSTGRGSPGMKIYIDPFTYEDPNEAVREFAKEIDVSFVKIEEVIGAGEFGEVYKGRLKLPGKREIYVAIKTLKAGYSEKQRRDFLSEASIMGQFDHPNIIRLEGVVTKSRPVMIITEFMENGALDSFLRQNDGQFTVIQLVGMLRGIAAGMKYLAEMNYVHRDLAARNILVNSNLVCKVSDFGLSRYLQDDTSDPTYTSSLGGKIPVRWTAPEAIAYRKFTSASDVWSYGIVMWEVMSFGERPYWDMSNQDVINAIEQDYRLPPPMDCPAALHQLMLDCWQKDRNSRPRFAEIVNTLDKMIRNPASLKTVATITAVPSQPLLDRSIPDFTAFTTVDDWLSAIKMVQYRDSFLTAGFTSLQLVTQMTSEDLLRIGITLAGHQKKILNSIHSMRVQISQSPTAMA
Hck, sequence (P08631 whole entry, looked up): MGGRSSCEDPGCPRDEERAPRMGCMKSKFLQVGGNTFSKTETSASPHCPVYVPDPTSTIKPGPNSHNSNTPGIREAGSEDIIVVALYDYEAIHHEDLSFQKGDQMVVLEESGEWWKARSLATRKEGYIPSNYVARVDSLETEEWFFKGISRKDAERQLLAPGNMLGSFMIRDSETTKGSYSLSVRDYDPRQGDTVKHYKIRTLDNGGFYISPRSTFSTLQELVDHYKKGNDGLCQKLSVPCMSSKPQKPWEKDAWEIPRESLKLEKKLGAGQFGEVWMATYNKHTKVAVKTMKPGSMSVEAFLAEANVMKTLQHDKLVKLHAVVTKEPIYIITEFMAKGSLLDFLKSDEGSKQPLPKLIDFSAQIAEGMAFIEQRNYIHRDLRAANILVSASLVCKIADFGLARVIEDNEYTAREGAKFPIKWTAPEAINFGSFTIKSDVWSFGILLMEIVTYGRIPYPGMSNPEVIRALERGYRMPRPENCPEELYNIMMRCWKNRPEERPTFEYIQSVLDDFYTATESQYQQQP
Jak2, sequence (O60674 whole entry, looked up): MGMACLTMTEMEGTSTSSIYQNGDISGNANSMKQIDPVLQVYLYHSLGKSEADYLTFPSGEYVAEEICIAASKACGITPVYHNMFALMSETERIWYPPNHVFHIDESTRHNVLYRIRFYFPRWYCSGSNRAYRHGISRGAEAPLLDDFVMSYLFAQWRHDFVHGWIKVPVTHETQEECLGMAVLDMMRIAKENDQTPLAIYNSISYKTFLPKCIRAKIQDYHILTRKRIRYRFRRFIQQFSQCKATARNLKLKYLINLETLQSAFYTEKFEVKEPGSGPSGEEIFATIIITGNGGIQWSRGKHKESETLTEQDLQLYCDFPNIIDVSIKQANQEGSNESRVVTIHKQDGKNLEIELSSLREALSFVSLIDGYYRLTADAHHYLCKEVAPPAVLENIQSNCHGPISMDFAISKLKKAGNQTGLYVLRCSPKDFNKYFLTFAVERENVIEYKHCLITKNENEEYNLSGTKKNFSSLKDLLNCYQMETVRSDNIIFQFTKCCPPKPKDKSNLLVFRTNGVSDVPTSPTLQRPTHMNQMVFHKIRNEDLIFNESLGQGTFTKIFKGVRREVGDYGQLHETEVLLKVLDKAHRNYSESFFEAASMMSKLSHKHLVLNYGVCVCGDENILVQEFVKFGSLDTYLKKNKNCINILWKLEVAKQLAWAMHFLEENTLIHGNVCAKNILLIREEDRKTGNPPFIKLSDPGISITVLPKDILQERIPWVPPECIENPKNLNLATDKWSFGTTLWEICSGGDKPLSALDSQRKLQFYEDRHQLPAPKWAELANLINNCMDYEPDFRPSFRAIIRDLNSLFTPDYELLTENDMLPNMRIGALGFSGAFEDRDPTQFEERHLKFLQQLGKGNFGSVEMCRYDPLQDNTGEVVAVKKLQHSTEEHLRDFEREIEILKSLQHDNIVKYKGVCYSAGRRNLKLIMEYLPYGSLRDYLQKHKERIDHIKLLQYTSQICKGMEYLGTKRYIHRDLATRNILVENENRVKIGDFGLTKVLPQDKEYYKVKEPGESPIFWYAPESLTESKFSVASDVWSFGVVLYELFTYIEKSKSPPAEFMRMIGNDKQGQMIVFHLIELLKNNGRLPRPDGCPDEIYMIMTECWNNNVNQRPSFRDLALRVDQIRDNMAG

With PGLSSYGVPGS [FLNB_Y1530_A1534G], the phosphorylation enrichment stood at 0.774 with AncSZ; 0.494 with EPHB1; 0.578 with EPHB2; 0.623 in the data set with FGFR1; 0.643 with FGFR3; 0.508 with Fer (mouse). Moreover, the phosphorylation enrichment was 0.786 in the data set with Fes; 0.598 in the data set with Fyn; 0.543 with Hck; 0.355 with Jak2; 0.622 with MERTK; 0.715 in the data set with c-Abl (mouse). Moreover, in the data set on c-Src, the phosphorylation enrichment is 0.454. The SH2 binding enrichment with Grb2 SH2 turned out to be 0.934; with SHP2-C SH2 it was 0.611; in the data set with c-Src SH2, 0.534.

As for PGVNFYFQVSA, the phosphorylation enrichment in the data set with AncSZ was determined as 1.41; in the data set with EPHB1 it was 1.27; in the data set with EPHB2 it was 1.24; with FGFR1, 0.557; in the data set with FGFR3, 1; in the data set with Fer (mouse), 0.724. Further, the phosphorylation enrichment with Fes worked out at 1.93; in the data set with Fyn, 0.414; in the data set with Hck, 0.526; in the data set with Jak2, 1.61; with MERTK it was 0.445; in the data set on c-Abl (mouse), 1.29. Besides, the phosphorylation enrichment in the data set with c-Src came out at 0.523. Further, the SH2 binding enrichment with Grb2 SH2 stood at 0.682; in the data set with SHP2-C SH2 it was 0.524; with c-Src SH2, 0.446.

In the case of PINEPYGDDLD [JUP_Y693_M697L], the phosphorylation enrichment was 1.35 with AncSZ; 0.799 with EPHB1; 0.921 with EPHB2; 0.873 in the data set with FGFR1; 0.988 in the data set with FGFR3; 0.734 in the data set on Fer (mouse). The phosphorylation enrichment with Fes came to 1.16; with Fyn it was 0.781; in the data set with Hck, 0.532; with Jak2 it was 1.16; with MERTK, 0.653; in the data set on c-Abl (mouse), 0.972. For the same sequence, the phosphorylation enrichment with c-Src worked out at 0.696. The SH2 binding enrichment in the data set with Grb2 SH2 is 0.727; in the data set with SHP2-C SH2, 0.568; with c-Src SH2 it was 0.655.

Take PKEQKYSFLQD [GH1_Y68_N73D]: the phosphorylation enrichment in the data set with AncSZ was determined as 0.948; in the data set with EPHB1, 0.605; with EPHB2, 0.693; with FGFR1, 0.597; in the data set with FGFR3, 0.532; in the data set with Fer (mouse), 0.435. Further, the phosphorylation enrichment with Fes is 1.16; with Fyn it was 0.523; with Hck, 0.619; with Jak2, 0.809; in the data set with MERTK, 0.858; in the data set on c-Abl (mouse) it was 1.05. The phosphorylation enrichment in the data set with c-Src stood at 0.628. The SH2 binding enrichment is 0.945 with Grb2 SH2, 0.895 in the data set with SHP2-C SH2 and 1.15 with c-Src SH2.

For PKEQRYSFLQN [GH1_Y68_K67R], the phosphorylation enrichment came out at 1.27 with AncSZ; 0.75 in the data set with EPHB1; 0.901 with EPHB2; 1.12 in the data set with FGFR1; 0.617 with FGFR3; 0.902 with Fer (mouse). The phosphorylation enrichment with Fes was determined as 1.44; with Fyn, 0.605; in the data set with Hck, 0.904; in the data set with Jak2, 1.62; with MERTK, 6.49; in the data set with c-Abl (mouse) it was 0.744. Moreover, in the data set on c-Src, the phosphorylation enrichment is 0.631. The SH2 binding enrichment with Grb2 SH2 was found to be 1.04; with SHP2-C SH2, 1.11; with c-Src SH2, 2.17.

For the sequence PLDNLYAEPAV [PRPS1_Y146_V142L], the phosphorylation enrichment with AncSZ was determined as 2.72; in the data set with EPHB1, 9.6; in the data set with EPHB2 it was 12.9; in the data set with FGFR1, 0.719; with FGFR3 it was 1.09; in the data set with Fer (mouse) it was 4.92. The phosphorylation enrichment was found to be 1.66 with Fes; 2.13 with Fyn; 4.65 with Hck; 1.83 with Jak2; 8.88 with MERTK; 10.6 in the data set with c-Abl (mouse). The phosphorylation enrichment with c-Src is 2.06. Further, the SH2 binding enrichment with Grb2 SH2 amounted to 0.995; with SHP2-C SH2 it was 0.655; with c-Src SH2 it was 0.486.

For PLGKDYRKAEG [MAP1A_Y1909], the phosphorylation enrichment in the data set with AncSZ came out at 0.68; with EPHB1 it was 0.512; with EPHB2, 0.532; in the data set with FGFR1, 0.691; with FGFR3 it was 0.787; in the data set with Fer (mouse), 0.655. The phosphorylation enrichment with Fes came out at 0.941; with Fyn, 0.72; with Hck, 0.945; with Jak2, 0.378; in the data set with MERTK, 0.589; with c-Abl (mouse) it was 0.505. Also, the phosphorylation enrichment in the data set on c-Src turned out to be 0.456. Moreover, the SH2 binding enrichment with Grb2 SH2 amounted to 0.884; in the data set with SHP2-C SH2, 0.647; with c-Src SH2, 0.408.

In the case of PLQNTYNYNVL [SLC4A1_Y553_K551N], the phosphorylation enrichment in the data set with AncSZ amounted to 0.634; with EPHB1, 0.939; with EPHB2, 1.6; with FGFR1 it was 0.37; in the data set with FGFR3 it was 0.545; in the data set on Fer (mouse), 0.233. Further, the phosphorylation enrichment in the data set with Fes turned out to be 0.894; in the data set with Fyn, 0.65; in the data set with Hck, 0.6; with Jak2, 0.67; with MERTK, 0.737; with c-Abl (mouse), 1.51. The phosphorylation enrichment in the data set with c-Src was 0.745. In addition, the figures for the SH2 binding enrichment in the data set with Grb2 SH2, with SHP2-C SH2 and with c-Src SH2 were 0.81, 0.865 and 2.12, respectively.

As to PMWHPYKVDVT [TP53TG5_Y255], the phosphorylation enrichment in the data set on AncSZ stood at 1.09; in the data set with EPHB1, 0.753; with EPHB2 it was 0.54; with FGFR1, 0.561; in the data set with FGFR3, 0.872; in the data set with Fer (mouse), 0.611. In addition, the phosphorylation enrichment was 1.27 with Fes; 1.3 with Fyn; 0.5 with Hck; 0.643 with Jak2; 0.398 with MERTK; 0.433 in the data set with c-Abl (mouse). For the same sequence, the phosphorylation enrichment with c-Src worked out at 2.06. Further, the SH2 binding enrichment with Grb2 SH2 was 0.525; in the data set with SHP2-C SH2, 0.487; with c-Src SH2 it was 0.436.

For the origin of these results see the supplement of paper PMC10065799, “High-throughput profiling of sequence recognition by tyrosine kinases and SH2 domains using bacterial peptide display” (eLife, 2023).
